Source: patent publication US20120141504A1 (MAYO FOUNDATION FOR MEDICAL EDUCATION AND RESEARCH, published 2012)

Target: T1, human B7-H3.1 expressed on 293 cells transfected with pcDNA/B7-H3 (human, UniProt Q5ZPR3 29-534)
T1 sequence: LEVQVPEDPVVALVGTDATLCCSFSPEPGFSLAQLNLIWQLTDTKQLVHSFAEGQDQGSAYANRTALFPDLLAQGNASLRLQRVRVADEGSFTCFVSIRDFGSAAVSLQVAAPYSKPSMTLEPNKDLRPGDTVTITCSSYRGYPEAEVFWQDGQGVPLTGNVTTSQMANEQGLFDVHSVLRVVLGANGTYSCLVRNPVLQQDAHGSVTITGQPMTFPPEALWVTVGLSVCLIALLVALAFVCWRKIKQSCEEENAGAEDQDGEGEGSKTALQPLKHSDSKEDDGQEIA
Assay: flow cytometry on transfected 293 cells
Protocol: After a 45 min incubation, cells were washed and cultured for 45 min with fluorescein isothiocyanate (FITC)-conjugated goat anti-mouse Ig F(ab′)₂ (BioSource, Camarillo, Calif.). For two color staining, cells were washed and further incubated with phycoerythrin (PE)-conjugated mAb specific for CD3, CD14, or CD19 (PharMingen, San Diego, Calif.). For the analysis of CD3+, CD19+, and CD 14+ cells, peripheral blood mononuclear cells (PBMC) (untreated or activated as described below) were stained with anti-B3-H7 antiserum (green fluorescence) and either anti-CD3, anti-CD19, or anti-CD14 monoclonal antibody (mAb) (orange fluorescence). The proportion of B7-H3 expressing cells (green fluorescence) within the CD3+, the CD19+, and the CD 14+ populations was assessed by gating the flow cytometer on the relevant populations (orange fluorescence). Expression of a B7-H3 counter-receptor was analyzed by incubation of cells with B7-H3Ig (5 μg/sample) with subsequent staining using FITC-conjugated goat anti-mouse Ig F(ab′)₂. Single or double stained cells were analyzed using the Becton Dickinson FACScan (Mountain View, Calif.).

B1: ICOSIg fusion protein (Fc fusion, UniProt Q9Y6W8 21-140, looked up)
chain: EINGSANYEMFIFHNGGVQILCKYPDIVQQFKMQLLKGGQILCDLTKTKGSGNTVSIKSLKFCHSQLSNNSVSFFLYNLDHSHANYYFCNLSIFDPPPFKVTLTGGYLHIYESQLCCQLK
notes: extracellular domain; Described as an analogous fusion protein prepared by a method similar to that for B7-H3Ig (extracellular domain fused to mouse IgG2a Fc); not shown: Fc constant region of mouse IgG2a
binding result: no binding (tested: 5 µg/sample)
